First the molecules themselves.
B1: Twister Ribozyme (parent)
chain: AACACUGCCAAUGCCGGUCCCAAGCCCGGAUAAAAGUGGAGGGGGCGG

Self-cleavage data for 54 variants are collected here from the RNAGym collection of RNA variant scans (doi:10.7554/elife.80360).

In this data set the parent is B1. Nature of the data set: self-cleavage, relative activity (ratio to wild type); higher = more cleavage; co-transcriptional.
As to AACACUGCCAAUGCCGGUCACAAGCCCGGAUAAAAGUGGAGGGAGCGG [C20A G44A], the self-cleavage is 0.198.

Regarding AACACUGCCAAUGCCGGUCCCAAGCCCGGAUAGAAGUGGAGGCGGCGG [A33G G43C], the self-cleavage is 0.144.

As for AACACUGCAAAUGCCGGUCCCAAGCCCGGAUAAAAGUGGAGGGUGCGG [C9A G44U], the self-cleavage was determined as 0.544.

As for AACACUGCCGAUGCCGGUCCCAAGCCCUGAUAAAAGUGGAGGGGGCGG [A10G G28U], the self-cleavage worked out at 1.04.

With AACACUGCCAAUGCCUGUCCCAAGCCCGGAUAUAAGUGGAGGGGGCGG [G16U A33U], the self-cleavage is 0.88.

Consider UACACUGCCAAUGCCGGUCCCAAGCCCUGAUAAAAGUGGAGGGGGCGG [A1U G28U], for which the self-cleavage was 0.0658.

Regarding AACACUGCCAAUGCCGGUCCCAAGCCCCGAGAAAAGUGGAGGGGGCGG [G28C U31G], the self-cleavage turned out to be 0.739.

For the variant AACACUACCAAUGCCGGUCCCAAGUCCGGAUAAAAGUGGAGGGGGCGG [G7A C25U], the self-cleavage worked out at 1.09.

For AACACUGCCAAUGCCGGUCCCAAGCCCGGAUAAACGAGGAGGGGGCGG [A35C U37A], the self-cleavage turned out to be 0.702.

Turning to AACACUGCUAAUGCCGGUCCCAAGCCCGGAUAAAAGUGGAGGUGGCGG [C9U G43U], the self-cleavage is 0.126.

Take AACACUGCCAAUGCCUGUCCCAAGCCCGGAUAAGAGUGGAGGGGGCGG [G16U A34G]: the self-cleavage was determined as 0.396.

Turning to AACACUGCCAAUGCCUGUCCCAAGCCCGGAUAAUAGUGGAGGGGGCGG [G16U A34U], the self-cleavage was 0.577.

In the case of AUCACUCCCAAUGCCGGUCCCAAGCCCGGAUAAAAGUGGAGGGGGCGG [A2U G7C], the self-cleavage is 0.0748.

Turning to AACAAUGUCAAUGCCGGUCCCAAGCCCGGAUAAAAGUGGAGGGGGCGG [C5A C8U], the self-cleavage amounted to 0.335.

Regarding AACACUGCCAAUGCCGGUCCCAAGGCCGGAUAAAAGUGGAGGGGGCGG [C25G], the self-cleavage was determined as 0.458.

Consider AACACUGCCAAUGCCGGUCCCAAGCCCGGAUAAAAUUGGAGGAGGCGG [G36U G43A], for which the self-cleavage is 0.102.

Regarding AACACUGCCAAGGCCGGUCCCAAGCUCGGAUAAAAGUGGAGGGGGCGG [U12G C26U], the self-cleavage is 0.407.

Take AACACUGCCAAUGACGGUCGCAAGCCCGGAUAAAAGUGGAGGGGGCGG [C14A C20G]: the self-cleavage came out at 0.126.

As to AACACUGCCAAUGCCGGUCCCAAACCCGGAUAAAAGUGGUGGGGGCGG [G24A A40U], the self-cleavage was 0.112.

For the variant AACGCUGCCGAUGCCGGUCCCAAGCCCGGAUAAAAGUGGAGGGGGCGG [A4G A10G], the self-cleavage is 0.892.

For the variant AACUCUGCCAAUGCCGGUCCCAAGCCCGGAUAAAAGUGGUGGGGGCGG [A4U A40U], the self-cleavage worked out at 0.0743.

Consider AACACUUCCAAUGCCGGUCCCAAGCCCUGAUAAAAGUGGAGGGGGCGG [G7U G28U], for which the self-cleavage worked out at 0.0862.

On to AACACUGCCAAUGCCGGUCCAAAGCCCGGAUAAAAGUGGUGGGGGCGG [C21A A40U], for which the self-cleavage worked out at 0.0782.

As for AACACUGCCAAUGCCGGUCCCAAGCCCUGAUAGAAGUGGAGGGGGCGG [G28U A33G], the self-cleavage is 0.979.

On to ACCACUGCCAAUGCCGGUCCCAAGCCCGGAUAAAAGUGGAGGUGGCGG [A2C G43U], for which the self-cleavage stood at 0.0462.

As to UACACUGCCAAUGCGGGUCCCAAGCCCGGAUAAAAGUGGAGGGGGCGG [A1U C15G], the self-cleavage was found to be 0.0744.

With AACACUGCCAAUGCCGGUCUCAAGCCCGGAUAAAAGUGGUGGGGGCGG [C20U A40U], the self-cleavage worked out at 0.125.

As to AACACUGCCAAUGCCGGUCCCAAACCCGGAUAAAAGUGGAGGGUGCGG [G24A G44U], the self-cleavage stood at 0.0885.

Turning to AACACUGCCAAUGCCGGUCCCAAGCCCGGAUCAAAGUGUAGGGGGCGG [A32C G39U], the self-cleavage amounted to 0.235.

On to AACACUGCCAAUGCCGCUCCCAAGCCCGGAUAAAAGUGGAUGGGGCGG [G17C G41U], for which the self-cleavage is 0.0841.

AACACUGCCAAUGCCGGUGCCAAGCCCGGAUAAUAGUGGAGGGGGCGG [C19G A34U]: the self-cleavage is 0.12.

Take AACACUGCCAAUGCCGGUUCCAAGCCCGGAUAAAAGUGUAGGGGGCGG [C19U G39U]: the self-cleavage amounted to 0.125.

Consider AACACGUCCAAUGCCGGUCCCAAGCCCGGAUAAAAGUGGAGGGGGCGG [U6G G7U], for which the self-cleavage worked out at 0.626.

Turning to GACACUGCCAAUGUCGGUCCCAAGCCCGGAUAAAAGUGGAGGGGGCGG [A1G C14U], the self-cleavage was determined as 0.693.

As to AACACUGCCAAUGCCGGUCAGAAGCCCGGAUAAAAGUGGAGGGGGCGG [C20A C21G], the self-cleavage was determined as 0.0829.

Regarding AACACUGCCAAUGCCGGUCCCAAGCCCGGAUAUAAGUGGAGUGGGCGG [A33U G42U], the self-cleavage is 0.244.

For the variant AACACUGCCCAUGCCGGUCCCAAGCCCGUAUAAAAGUGGAGGGGGCGG [A10C G29U], the self-cleavage amounted to 0.912.

Consider AACACUGCCAAUGCCGGUACCAAGCCCGGAUAAAAGGGGAGGGGGCGG [C19A U37G], for which the self-cleavage turned out to be 0.0778.

For AACACUGCCAAUGCCGGUCCCAAGCCCGGAUAUAAGUGGAGGGUGCGG [A33U G44U], the self-cleavage stood at 0.897.

In the case of AACACUGCCAAUGCCGGUCCCCAGCCCGGAUAAUAGUGGAGGGGGCGG [A22C A34U], the self-cleavage amounted to 0.872.

Regarding AAAACUGCCAAUGCCUGUCCCAAGCCCGGAUAAAAGUGGAGGGGGCGG [C3A G16U], the self-cleavage came to 0.141.

As to AACACUGCCAAUGCCGGUCCCAAGCCCGGCUAAAAGUGGAGGGGGCGA [A30C G48A], the self-cleavage turned out to be 0.576.

In the case of AACACUGCCAAUGCAGAUCCCAAGCCCGGAUAAAAGUGGAGGGGGCGG [C15A G17A], the self-cleavage stood at 0.061.

For AACACUGCCUAUGCCGGUCCCAAGCCCGGAUAAAAGUGGAGGGGCCGG [A10U G45C], the self-cleavage is 0.707.

As to AACACUGCCAUUGCCGGUCCCAAGCCUGGAUAAAAGUGGAGGGGGCGG [A11U C27U], the self-cleavage was 0.894.

Take AACACUGCCAAUGCCGGGUCCAAGCCCGGAUAAAAGUGGAGGGGGCGG [U18G C19U]: the self-cleavage came out at 0.105.

For AACACUUCCAAUUCCGGUCCCAAGCCCGGAUAAAAGUGGAGGGGGCGG [G7U G13U], the self-cleavage was 0.0485.

Turning to AACACUGCCAAUGCCGGUCCCAAGCCCGGACAAAAGUGGAGGGCGCGG [U31C G44C], the self-cleavage stood at 0.976.

Consider AACACUGCCAAUACCGGUCCCAAGCCCGGAUAAAAGUCGAGGGGGCGG [G13A G38C], for which the self-cleavage was 0.78.

Regarding AACACUGCCAAUGCCGGUCCCAAGCCGGGAUAAAAGUGGUGGGGGCGG [C27G A40U], the self-cleavage was 0.107.

Take AACACUGCCAAUGCCGGUCCCAAGCCCGGUUAAAAGUGAAGGGGGCGG [A30U G39A]: the self-cleavage turned out to be 0.614.

In the case of AGCACUGCCAAUGCCGGUCCCAAGCCCGGAUAAAAAUGGAGGGGGCGG [A2G G36A], the self-cleavage turned out to be 0.118.

Consider AACACUGCCAAUGCCGGUCCCAAGCCCGCAUAAAAGUGUAGGGGGCGG [G29C G39U], for which the self-cleavage was 0.12.

As to AACACUGCCAAUGCCGGUCCCAACCCCGGAUAAAAGUGCAGGGGGCGG [G24C G39C], the self-cleavage was 0.0715.
